# Experimental data reported in the RNAGym collection of RNA variant scans (doi:10.1073/pnas.2313332121).
# B1: TPR t1 (parent)
# chain: GACCAAUCUGCCCUCAGAGCUCGAGAACAUCUUCGGAUGCAGAGGAGGCAGGCUUCGGUGGCGCGAUAGCGCCAACGUCCUCAACCUCCAAUGCAUCCCACCACAUGAUGAUGCCUGAAGAGCCUUGGUUUUUUG
# Variants of: B1
# Assay: polymerase ribozyme fitness, log enrichment relative to wild type (log ratio); higher = more active; in vitro selection for triplet polymerase activity
# How it was run: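 Mutant libraries were PCR-built and transcribed for each subunit of a heterodimeric triplet polymerase ribozyme and selected for one round in triplicate at −7 °C, frozen, before gel excision of extended constructs and streptavidin-bead capture. Input and output libraries were Illumina-sequenced, keeping genotypes with ≥10 input reads and ≥1 read per output. Fitness is a logarithmic ratio of genotype to wild-type enrichment, in base 2, using inverse-variance-weighted replicate averages.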
row,Variant,polymerase ribozyme fitness (log ratio)
1,C40U G61U A119U G122U,-0.621
2,C40G G113U C114U U133G,-2.25
3,C40U G60C C82U A90G A95U C97A C123G,-7.02
4,C40U G51U G58A,-4.36
5,C40U G48A A50C C72A,0.216
6,C40U G45U G63A,-2.6
7,C40U A43G G61A C97U,-3.06
8,C40A U96G,-1.47
9,C40G C56A,-1.63
10,C40A G44C C72G G127A,-4.18
11,C40G C79U C101U G113U,-4.09
12,C40A G45U G122U,-2.79
13,C40U G42A G63C U125G,-2.99
14,A41C A74G C98U,-1.89
15,C40A G42U G77C,-2.77
16,C40A G44A G45U A50C G93A,-5.29
17,C40U U109C,-4.01
18,C40U G48U A50C G51A,-3.99
19,C40U A68U G69A C88U G93A U133A,-6.63
20,C40U A46U C88U,-2
21,C40G G57U,-1.36

row,Variant,polymerase ribozyme fitness (log ratio)
1,C40U A50C C76G G77C C80U U131G,-4.6
2,C40A G45U G110A,-4.4
3,C40U C49A C72G A74U C94U G117C,-6.96
4,A41C A90C C123G G128C,-2.07
5,C40A G63U C79A U130G,-4.83
6,C40G C56G C124G G127U,-0.222
7,C40U C80G,-5.42
8,C40U G47A U109A C114U,-6.24
9,C40A G58C C72G U78G C79A,-5.64
10,C40G A50U G63C,-2.25
11,C40G G117C,-3.98
12,C40G U67C C70U U116C U133C,-5.53
13,C40A C72A U81A A119U,-3.46
14,C40U C56G G63C,-3.69
15,C40U C70A C85U G135U,-4.91
16,C40U C115A,-0.771
17,C40G C62U C72A A83G,-3.49
18,C40G U59A C72U G110C G117A A119C U129G U133G,-7.24
19,C40A C72G A119U U130C U131A,-1.75
20,C40U C98U,-2.01
21,C40G C102U U116G C124U,-4.94

row,Variant,polymerase ribozyme fitness (log ratio)
1,C40G C53U,-0.175
2,C40G U59A,-1.68
3,C40A G61A C73U C88U G113U,-6.64
4,C40U A43U C49A U55C G61C A84C G110C U131C,-6.76
5,C40A C72A A100C U132C,-2.7
6,C40G C49A C64U A119U U126A,-3.13
7,C40A C89U G117A A121G,-0.101
8,C40A G48C G61A,-0.933
9,C40G C82U U106A,-1.73
10,C40G U55G U78G,-2.04
11,C40G C64U U81A,-2.3
12,C40G U92A,-3.01
13,C40U A41C G71A,-2.9
14,C40U G77A,-1.17
15,C40A U55A G69C C73A A84C G120A,-1.3
16,C40U A84C U112A,0.737
17,C40G G63A U92G,-3.61
18,C40U G45C C49U G63U A83U,-5.92
19,C40U C62U,-0.882
20,C40G C53G G61C C104A G113A,-4.09
21,C40G G110A U132A,-1.48

row,Variant,polymerase ribozyme fitness (log ratio)
1,C40G G69A C79U,-2.89
2,C40U G44A A121U,0.301
3,C40U A46C C64U,-2.21
4,C40U G52U C62U,-1.16
5,C40U C99A,-4.45
6,C40U C99U,-3.93
7,C40A G48C A121C U129G,-0.25
8,C40G G110A,-1.53
9,C40G C49U A84U,-2.42
10,C40U G47A A118G,-2.47
11,C40U A83G G128A U129G,-3.53
12,C40G C56U G77A,-0.862
13,C40A G71U G117C G120C,-5.63
14,C40U A90G C102G,-4.16
15,C40A U106A G113A,-3.55
16,C40G A41U G45U,-5.41
17,C40U U78C U132A,-1.65
18,C40U C72G U106A C123G U126A U131A,-1.25
19,C40U C62U G135U,-1.68
20,C40G G48U C82A,-2.43
